# In the Human Domainome abundance scans (Beltran et al. 2025):
# ± gives the uncertainty stated by the source.
# B1: DnaJ homolog subfamily C member 5, residues 16 to 77; numbered along this chain, Q9H3Z4 (parent)
# chain: LYHVLGLDKNATSDDIKKSYRKLALKYHPDKNPDNPEAADKFKEINNAHAILTDATKRNIYD
# Variants of: B1
# Assay: abundance fitness (aPCA) (normalised: wild type 0, dead -1); higher = more abundant; growth selection in yeast, the domain comes from the species named
# Details: Homo sapiens
row,Variant,abundance fitness
1,L1M,0.022 ± 0.15
2,L1G,-0.539 ± 0.11
3,L1N,0.262 ± 0.17
4,D34E,-0.079 ± 0.085
5,D34C,-0.783 ± 0.12
6,D34Y,-0.355 ± 0.095
7,D34A,-0.145 ± 0.074
8,D34T,-0.257 ± 0.096
9,D34R,-0.251 ± 0.074
10,D34F,-1.01 ± 0.12
11,D34N,-0.299 ± 0.086
12,L52W,-0.454 ± 0.11
13,L52F,-0.295 ± 0.39
14,L52P,-0.292 ± 0.12
15,L52A,-0.303 ± 0.12
16,L52D,-0.381 ± 0.16
17,L52T,-0.446 ± 0.081
18,L52I,-0.592 ± 0.23
19,L52C,-0.963 ± 0.26
20,L52R,-0.479 ± 0.079
21,K22H,0.169 ± 0.24
22,K22E,0.249 ± 0.11
23,K22N,-0.188 ± 0.32
24,K22A,0.117 ± 0.072

row,Variant,abundance fitness
1,K22M,0.32 ± 0.12
2,K22C,-0.19 ± 0.13
3,E44S,-0.3 ± 0.067
4,E44T,-0.518 ± 0.096
5,E44F,-0.744 ± 0.12
6,E44R,-0.435 ± 0.061
7,E44K,-0.376 ± 0.096
8,E44W,-0.731 ± 0.14
9,E44M,-0.097 ± 0.11
10,E44V,-0.264 ± 0.073
11,E44L,-0.504 ± 0.063
12,K17N,-0.248 ± 0.34
13,K17D,-0.477 ± 0.47
14,K17Q,-0.063 ± 0.09
15,K17A,0.048 ± 0.068
16,K17T,-0.07 ± 0.096
17,K17F,-0.52 ± 0.19
18,K17P,-1.31 ± 0.13
19,A39K,0.095 ± 0.092
20,A39N,0.003 ± 0.13
21,A39E,-0.14 ± 0.084
22,A39P,-0.301 ± 0.19
23,A39T,-0.427 ± 0.21
24,A39R,-0.021 ± 0.068

row,Variant,abundance fitness
1,Y61M,-0.218 ± 0.12
2,Y61D,0.22 ± 0.12
3,Y61T,0.073 ± 0.11
4,Y61C,-0.063 ± 0.098
5,Y61S,0.182 ± 0.067
6,Y61P,0.244 ± 0.12
7,Y61W,-0.511 ± 0.12
8,Y61R,0.03 ± 0.076
9,Y61K,-0.174 ± 0.15
10,I60K,0.197 ± 0.11
11,I60P,-0.039 ± 0.088
12,I60S,0.258 ± 0.076
13,I60Y,-0.074 ± 0.16
14,I60G,0.223 ± 0.065
15,I60D,0.493 ± 0.21
16,I60M,0.114 ± 0.1
17,I60L,0.077 ± 0.093
18,I60Q,0.168 ± 0.13
19,I60E,0.522 ± 0.094
20,R58N,-0.114 ± 0.33
21,R58C,-0.442 ± 0.15
22,P29G,-0.381 ± 0.064
23,P29W,-0.66 ± 0.077
24,P29I,-0.57 ± 0.095

row,Variant,abundance fitness
1,P29M,-0.386 ± 0.084
2,P29C,-0.42 ± 0.11
3,N35S,-0.041 ± 0.089
4,N35K,-0.194 ± 0.11
5,N35G,-0.281 ± 0.072
6,Y2A,-0.496 ± 0.091
7,Y2F,-0.394 ± 0.14
8,Y2T,-0.357 ± 0.27
9,Y2E,-0.098 ± 0.1
10,Y27S,-0.21 ± 0.083
11,Y27G,-0.27 ± 0.077
12,Y27A,-0.344 ± 0.1
13,Y27C,-0.239 ± 0.19
14,Y27F,0.185 ± 0.14
15,Y27W,0.231 ± 0.099
16,N10I,-0.741 ± 0.16
17,N10S,-0.142 ± 0.078
18,N10F,-0.371 ± 0.11
19,N10Q,-0.266 ± 0.087
20,N10P,-0.818 ± 0.14
21,T12K,-0.437 ± 0.14
22,T12P,-1.01 ± 0.1
23,T12Y,-1.07 ± 0.2
24,T12L,-0.813 ± 0.084

row,Variant,abundance fitness
1,T12D,-0.467 ± 0.21
2,T12N,-0.426 ± 0.17
3,D30V,-0.207 ± 0.075
4,D30M,-0.089 ± 0.17
5,D30N,-0.018 ± 0.098
6,D30S,0.099 ± 0.069
7,D30G,-0.171 ± 0.062
8,G6V,-1.42 ± 0.16
9,G6K,-0.751 ± 0.25
10,S19K,-0.391 ± 0.11
11,S19A,0.02 ± 0.078
12,S19Y,-0.299 ± 0.2
13,S19V,-0.187 ± 0.067
14,S19R,-0.317 ± 0.051
15,S19P,-0.516 ± 0.052
16,I51T,-0.08 ± 0.084
17,I51G,-0.257 ± 0.094
18,I51V,0.106 ± 0.085
19,I51Q,0.036 ± 0.11
20,I51R,-0.318 ± 0.064
21,I51M,-0.131 ± 0.1
22,I51S,-0.262 ± 0.1
23,K31I,-0.06 ± 0.16
24,K31L,-0.433 ± 0.083

row,Variant,abundance fitness
1,K31H,-0.195 ± 0.17
2,K31E,-0.116 ± 0.11
3,K31D,-0.118 ± 0.14
4,K57R,-0.059 ± 0.081
5,K57M,-0.43 ± 0.17
6,K57F,-1.01 ± 0.13
7,K57N,-0.575 ± 0.33
8,K57S,-0.349 ± 0.11
9,T56I,-0.425 ± 0.14
10,T56Q,-0.417 ± 0.18
11,T56K,-0.101 ± 0.12
12,T56F,-0.499 ± 0.26
13,T56H,-0.264 ± 0.11
14,T56Y,-0.424 ± 0.27
15,T56V,-0.396 ± 0.1
16,T56E,0.097 ± 0.16
17,T56C,-0.069 ± 0.12
18,T56M,-0.334 ± 0.21
19,Y20I,-0.603 ± 0.29
20,Y20V,-0.28 ± 0.055
21,Y20K,-0.27 ± 0.14
22,Y20P,-0.093 ± 0.075
23,Y20M,-0.414 ± 0.089
24,Y20S,-0.086 ± 0.068

row,Variant,abundance fitness
1,Y20W,0.329 ± 0.075
2,Y20Q,0.015 ± 0.13
3,E37F,-0.01 ± 0.09
4,E37W,-0.171 ± 0.068
5,E37R,-0.117 ± 0.05
6,E37V,0.041 ± 0.054
7,E37L,-0.172 ± 0.062
8,E37I,-0.406 ± 0.17
9,E37M,-0.217 ± 0.13
10,E37D,-0.238 ± 0.13
11,E37Q,0.079 ± 0.081
12,H28C,-0.29 ± 0.29
13,H28Y,-0.409 ± 0.13
14,H28F,-0.541 ± 0.28
15,H28A,-0.06 ± 0.26
16,V4P,-0.733 ± 0.1
17,V4L,-0.292 ± 0.051
18,F42R,-0.17 ± 0.059
19,F42M,0.223 ± 0.1
20,F42Y,-0.017 ± 0.18
21,F42N,-0.237 ± 0.096
22,F42I,-0.135 ± 0.05
23,F42D,-0.119 ± 0.1
